Data from USRE49294.

Tests used:
[1] = molecular target: T1, Tel protelomerase (bacteriophage PY54) (UniProt Q8W5V1); assay: cell_activity; details: SS- integrant at lambda attB, 42 C; no processing of SS- plasmid
T1 sequence: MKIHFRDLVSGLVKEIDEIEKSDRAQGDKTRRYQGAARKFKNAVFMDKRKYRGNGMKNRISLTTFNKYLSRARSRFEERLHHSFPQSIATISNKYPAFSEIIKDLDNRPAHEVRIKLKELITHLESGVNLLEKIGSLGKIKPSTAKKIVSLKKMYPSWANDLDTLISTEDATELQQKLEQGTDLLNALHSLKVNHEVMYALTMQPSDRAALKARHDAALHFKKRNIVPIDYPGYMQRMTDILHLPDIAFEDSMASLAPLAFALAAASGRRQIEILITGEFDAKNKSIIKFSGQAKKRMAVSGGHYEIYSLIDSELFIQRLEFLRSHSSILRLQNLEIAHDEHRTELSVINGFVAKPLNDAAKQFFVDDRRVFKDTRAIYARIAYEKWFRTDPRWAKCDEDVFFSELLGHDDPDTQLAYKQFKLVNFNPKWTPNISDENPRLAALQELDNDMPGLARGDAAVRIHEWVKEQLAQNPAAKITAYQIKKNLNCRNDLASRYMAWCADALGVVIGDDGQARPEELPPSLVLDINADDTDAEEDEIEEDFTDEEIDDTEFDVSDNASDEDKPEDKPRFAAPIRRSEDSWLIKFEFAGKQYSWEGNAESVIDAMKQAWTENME

[2] = molecular target: T2, TelN protelomerase (bacteriophage N15) (UniProt Q77WP1); assay: cell_activity; details: SS- integrant at lambda attB, 42 C
T2 sequence: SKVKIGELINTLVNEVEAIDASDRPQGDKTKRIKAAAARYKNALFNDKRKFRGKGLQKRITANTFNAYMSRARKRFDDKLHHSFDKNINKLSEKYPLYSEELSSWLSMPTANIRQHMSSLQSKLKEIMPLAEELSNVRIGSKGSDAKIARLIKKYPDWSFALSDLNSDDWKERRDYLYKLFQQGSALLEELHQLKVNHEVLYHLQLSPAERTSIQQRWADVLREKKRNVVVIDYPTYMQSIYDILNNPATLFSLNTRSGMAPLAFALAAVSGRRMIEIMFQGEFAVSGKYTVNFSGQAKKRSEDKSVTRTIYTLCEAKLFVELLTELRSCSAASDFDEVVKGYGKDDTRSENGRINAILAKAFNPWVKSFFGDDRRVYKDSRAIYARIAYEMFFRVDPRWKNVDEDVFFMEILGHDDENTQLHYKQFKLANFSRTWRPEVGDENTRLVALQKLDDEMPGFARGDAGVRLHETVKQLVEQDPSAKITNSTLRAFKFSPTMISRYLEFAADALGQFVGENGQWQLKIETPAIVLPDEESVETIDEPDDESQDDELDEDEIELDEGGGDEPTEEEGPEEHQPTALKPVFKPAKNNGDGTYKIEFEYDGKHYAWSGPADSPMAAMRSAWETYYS

SS-minus plasmid (no target site)
activity (fraction viable) [1]: 1 | activity (fraction viable) [2]: 0.6
